Test system: MS2 coat protein
Experiment: apparent KD of MS2 coat protein; designed switch direction (-1 OFF switch, 1 ON switch): -1; higher = weaker reporter binding
In short: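 Designed RNA switches sharing common flanks were transcribed on Illumina chips by stalled E. coli RNA polymerase. They were titrated with SNAP-549-labelled MS2 coat protein, from 0.7 or 1.5 nM doubling to 3 µM, in Tris-HCl pH 7.5 buffer with KCl, MgCl2, BSA, DTT, tRNA and Tween-20. Titrations ran without input, with 200 uM small-molecule ligand, or with an oligonucleotide input. The apparent KD of each design is the median over its clusters, after curve-fitting of normalised cluster fluorescence.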

[1] = Eterna round: R95, input ligand: FMN 200 uM
[2] = Eterna round: R95, input ligand: microRNA oligo, concentration not stated
[3] = Eterna round: R95, input ligand: none
[4] = input ligand: microRNA oligo, concentration not stated

Row | Sequence | apparent KD of MS2 coat protein (input ligand: FMN 200 uM) | apparent KD of MS2 coat protein (input ligand: none) | apparent KD of MS2 coat protein [1] | apparent KD of MS2 coat protein [2] | apparent KD of MS2 coat protein [3] | apparent KD of MS2 coat protein [4]
1 | GCUUAACAUGAGGAUCACCCAUGUUAGGAUAUGCGAACUCGUAAGAUGCAGGGAGAUUGCAGAAGGAACGUGGC [EX1 C.15] (Eterna round: R97, puzzle: Exclusion 1) | 22 nM | 18.2 nM | – | – | – | –
2 | ACAAGAAUUUUGCUCGUAAAGUAGAAACGCGAGAGCGAGACAUGAGGAUCACCCAUGUAAAGGCAGUAGGUGGAGAU [JR_SV3TOV2_Sub027] (puzzle: Sensor v3, turn-off variant 2) | – | – | 49.3 nM | 50.9 nM | 46.1 nM | –
3 | ACGCGAGUAGGAGGAUAUUCUGAGCGCGGGCCAGAAGAAGGCCUAGAUCGUGAACAUGAGGAUCACCCAUGUGGGAUGAUCUAA [Vevexeaus] (Eterna round: R96, puzzle: Exclusion NG 1) | 180 nM | 307 nM | – | – | – | 224 nM
4 | UGUCUUCAUAUCACAUGAGGAUCACCCAUGUUAUUCAUCUCGUAGGAUAUCGAGGUUUAUUAUUUCGAGAAGGACGUAUUGUUU [JR_ExcNG3_Sub076] (Eterna round: R96, puzzle: Exclusion NG 3) | 199 nM | 148 nM | – | – | – | 112 nM
5 | ACUAUCAGAUUCUUAGGGUACAUGAGGAUCACCCAUGUGUACGUCUACGAGGGUUCGAAAAUCAAGCUCCGCUCGUC [Eternabot (L2) Solution 19] (Eterna round: R97, puzzle: Sensor, turn-off variant 1) | 99.2 nM | 91.8 nM | – | – | – | –
6 | CUGGUCCGAGGAUAUAUUAAGUGAUACAUGAGGAUCACCCAUGUAAUUUGAUGGAAGUAAAUAGAAGGCGGACUAG [Mat - Exclusion 5 - JL mod - D45] (puzzle: Exclusion 5) | – | – | 34.2 nM | 43 nM | 74 nM | –
7 | AUUGAUAUUGAGGAUAUGCUUUUAUUUGAACAAGCAGAAGGCGAUACAUGAGGAUCACCCAUGUUUAUGGAAGU [JR_E6_Sub087] (puzzle: Exclusion 6) | – | – | 51.6 nM | 37.6 nM | 49.4 nM | –
8 | AGCUCACAUGAGGAUCACCCAUGUCAGGAUAUCGACUGAACAGCUUCGGCUGUUCAGUCGAGAAGGGACAAUUA [Brourdxlusion 5 - Jieux - Exclusion 1] (Eterna round: R97, puzzle: Exclusion 1) | 182 nM | 59.7 nM | – | – | – | –
9 | ACAUGAGGAUCACCCAUGUGAAAAGAAUGGCUGACACAGAGAUAGGAUAUAUGUGCAUAUCAAACAUAGAAGGGUCAUGACUGG [Deportation 83 - Jieux - Exclusion NG 3] (Eterna round: R96, puzzle: Exclusion NG 3) | – | – | – | – | – | 23 nM
10 | UCUCGAUGGCAAGGAUAUCCUACAUUGUUCUGGCCCGGGCAUGCUACAUGAGGAUCACCCAUGUGGGAGAAGGUGCGCCACUGC [Design 26] (Eterna round: R96, puzzle: Exclusion NG 2) | 118 nM | 93.3 nM | – | – | – | 55 nM
11 | UUUAUAGUAGGAUAUACAUGAGGAUCACCCAUGUAGUAGGGAAGACCUUGGUGGGAACGUAGAAGGACUUGGAG [Eternabot (L2) Solution 44] (Eterna round: R97, puzzle: Exclusion 3) | 73.3 nM | 74.2 nM | – | – | – | –
12 | GACUUGUCAGGAUAUCUUACAUUAACAUCGUAGUUACCGUUGGAGAAGGGACAUGAGGAUCACCCAUGUUUGGC [tap-tap-tappy25] (Eterna round: R97, puzzle: Exclusion 4) | 41.8 nM | 28.7 nM | – | – | – | –
